# From paper PMC11253611, “The chaperone PrsA2 regulates the secretion, stability, and folding of listeriolysin O during Listeria monocytogenes infection” (mBio, 2024)
# Changes are numbered by the printed parent chain. Numbers in names are those of the source.
# B1: recombinant PrsA2 (wild type, without the signal sequence) (natural protein)
# chain: CGGGGDVVKTDSGDVTKDELYDAMKDKYGSEFVQQLTFEKILGDKYKVSDEDVDKKFNEYKSQYGDQFSAVLTQSGLTEKSFKSQLKYNLLVQKATEANTDTSDKTLKKYYETWQPDITVSHILVADENKAKEVEQKLKDGEKFADLAKEYSTDTATKDNGGQLAPFGPGKMDPAFEKAAYALKNKGDISAPVKTQYGYHIIQMDKPATKTTFEKDKKAVKASYLESQLTTENMQKTLKKEYKDANVKVEDKDLKDAFKDFDGSSSSDSDSSK
# notes: also called Lm PrsA2; pQE60-prsA2; source: E. coli BL21 (DE3*), purified (nickel-NTA, dialysis)
# B2: PrsA2 V91T (natural protein, Listeria monocytogenes, UniProt Q8Y557 21-293, looked up)
# chain: B1 chain with V71T
# modifications: Red NHS dye (NanoTemper 2nd Generation) on primary amines, in the MST experiments only
# notes: Same limits and tag as m1; also called foldase domain mutant; source: E. coli BL21 (DE3*), purified (nickel-NTA, dialysis)
# B3: PrsA2 No dimer mutant/PrsA2^M (V28A/L40A/Y41A/M44A) (natural protein, Listeria monocytogenes, UniProt Q8Y557 21-293, looked up)
# chain: B1 chain with V8A, L20A, Y21A, M24A
# modifications: Red NHS dye (NanoTemper 2nd Generation) on primary amines, in the MST experiments only
# notes: Same limits and tag as m1; also called PrsA2 monomer; PrsA2 dimer mutant; source: E. coli BL21 (DE3*), purified (nickel-NTA, dialysis)
# Assays:
# [1] = target: recombinant listeriolysin O (without the signal sequence, 25-529) (Listeria monocytogenes 10403S) (UniProt P13128); assay: ITC; pH 6.5, 25°C; PrsA2 (19.0 µM) or mutant titrated into LLO (0.4 µM); 20 mM MES, 100 mM NaCl, 1 mM β-mercaptoethanol, 10% glycerol; independent binding model; n counts PrsA2 monomers per LLO
# [2] = target: recombinant listeriolysin O (without the signal sequence, 25-529) (Listeria monocytogenes 10403S) (UniProt P13128); assay: MST; pH 6.5, 25°C; NHS-dye-labelled PrsA2 or mutant (20-150 nM) with serially diluted unlabelled LLO; 20 mM MES, 100 mM NaCl, 1 mM β-mercaptoethanol, 10% glycerol, 0.05% Tween 20; 1:1 model in PALMIST
# [3] = target: T1, recombinant listeriolysin O (without the signal sequence, 25-529) (Listeria monocytogenes 10403S, UniProt P13128 25-529); assay: MST; pH 7.4, 25°C; NHS-dye-labelled PrsA2 (20-150 nM) with serially diluted unlabelled LLO; 20 mM MES, 100 mM NaCl, 1 mM β-mercaptoethanol, 10% glycerol, 0.05% Tween 20; 1:1 model in PALMIST; details: both partners purified
# T1 construct: also called LLO; source: E. coli BL21 (DE3*), purified (nickel-NTA, dialysis)
# [4] = target: T1, recombinant listeriolysin O (without …); assay: ITC; pH 6.5, 25°C; PrsA2 (19.0 µM) or mutant titrated into LLO (0.4 µM); 20 mM MES, 100 mM NaCl, 1 mM β-mercaptoethanol, 10% glycerol; independent binding model; n counts PrsA2 monomers per LLO; details: both partners purified
# [5] = target: T1, recombinant listeriolysin O (without …); assay: MST; pH 6.5, 37°C; NHS-dye-labelled PrsA2 (20-150 nM) with serially diluted unlabelled LLO; 20 mM MES, 100 mM NaCl, 1 mM β-mercaptoethanol, 10% glycerol, 0.05% Tween 20; 1:1 model in PALMIST; details: both partners purified
# [6] = target: T1, recombinant listeriolysin O (without …); assay: MST; pH 7.4, 37°C; NHS-dye-labelled PrsA2 (20-150 nM) with serially diluted unlabelled LLO; 20 mM MES, 100 mM NaCl, 1 mM β-mercaptoethanol, 10% glycerol, 0.05% Tween 20; 1:1 model in PALMIST; details: both partners purified
# [7] = target: the molecule itself; assay: cross-linking; 500 ng His-tagged protein with 10 µM BS3 for 1 hour at room temperature in 20 mM HEPES, 200 mM NaCl, pH 6.5; heated at 85°C, SDS-PAGE, anti-His Western blot
# [8] = target: T1, recombinant listeriolysin O (without …); assay: ITC; pH 5.5, 37°C; PrsA2 titrated into LLO; 20 mM MES, 100 mM NaCl, 1 mM β-mercaptoethanol, 10% glycerol; independent binding model; n counts PrsA2 monomers per LLO; details: both partners purified
# [9] = target: T1, recombinant listeriolysin O (without …); assay: ITC; pH 6.5, 37°C; PrsA2 titrated into LLO; 20 mM MES, 100 mM NaCl, 1 mM β-mercaptoethanol, 10% glycerol; independent binding model; n counts PrsA2 monomers per LLO; details: both partners purified
# [10] = target: T1, recombinant listeriolysin O (without …); assay: MST; pH 5.5, 25°C; NHS-dye-labelled PrsA2 (20-150 nM) with serially diluted unlabelled LLO; 20 mM MES, 100 mM NaCl, 1 mM β-mercaptoethanol, 10% glycerol, 0.05% Tween 20; 1:1 model in PALMIST; details: both partners purified
# [11] = target: T1, recombinant listeriolysin O (without …); assay: ITC; pH 6.5, 25°C; PrsA2 (19.0 µM) or mutant titrated into LLO (0.4 µM); 20 mM MES, 100 mM NaCl, 1 mM β-mercaptoethanol, 10% glycerol; independent binding model; n counts PrsA2 monomers per LLO; details: both partners purified; remark: listed apart in the source
# [12] = target: T1, recombinant listeriolysin O (without …); assay: ITC; pH 5.5, 25°C; PrsA2 titrated into LLO; 20 mM MES, 100 mM NaCl, 1 mM β-mercaptoethanol, 10% glycerol; independent binding model; n counts PrsA2 monomers per LLO; details: both partners purified
# [13] = target: T1, recombinant listeriolysin O (without …); assay: MST; pH 5.5, 37°C; NHS-dye-labelled PrsA2 (20-150 nM) with serially diluted unlabelled LLO; 20 mM MES, 100 mM NaCl, 1 mM β-mercaptoethanol, 10% glycerol, 0.05% Tween 20; 1:1 model in PALMIST; details: both partners purified
# [14] = target: T1, recombinant listeriolysin O (without …); assay: ITC; pH 7.4, 25°C; PrsA2 titrated into LLO; 20 mM MES, 100 mM NaCl, 1 mM β-mercaptoethanol, 10% glycerol; independent binding model; n counts PrsA2 monomers per LLO; details: both partners purified
# [15] = target: T1, recombinant listeriolysin O (without …); assay: ITC; pH 7.4, 37°C; PrsA2 titrated into LLO at low LLO concentrations to mitigate heats of self-aggregation; 20 mM MES, 100 mM NaCl, 1 mM β-mercaptoethanol, 10% glycerol; independent binding model; n counts PrsA2 monomers per LLO; details: both partners purified
# [16] = target: T1, recombinant listeriolysin O (without …); assay: MST; pH 6.5, 25°C; NHS-dye-labelled PrsA2 or mutant (20-150 nM) with serially diluted unlabelled LLO; 20 mM MES, 100 mM NaCl, 1 mM β-mercaptoethanol, 10% glycerol, 0.05% Tween 20; 1:1 model in PALMIST; details: both partners purified
# [17] = target: T1, recombinant listeriolysin O (without …); assay: as above; details: both partners purified; remark: listed apart in the source
# [18] = target: T1, recombinant listeriolysin O (without …); assay: ITC; pH 6.5, 25°C; PrsA2 (19.0 µM) or mutant titrated into LLO (0.4 µM); 20 mM MES, 100 mM NaCl, 1 mM β-mercaptoethanol, 10% glycerol; independent binding model; n counts PrsA2 monomers per LLO; details: both partners purified; remark: listed apart in the source
# [19] = target: T1, recombinant listeriolysin O (without …); assay: cell-based or functional assay
# [20] = target: T1, recombinant listeriolysin O (without …); assay: MST; pH 6.5, 25°C; NHS-dye-labelled PrsA2 or mutant (20-150 nM) with serially diluted unlabelled LLO; 20 mM MES, 100 mM NaCl, 1 mM β-mercaptoethanol, 10% glycerol, 0.05% Tween 20; 1:1 model in PALMIST; details: both partners purified; remark: listed apart in the source
molecule,measurement,setting,value
"PrsA2 N+C (foldase domain only, lacks the entire PPIase domain) (from UniProt Q8Y557 21-293) (domain or fragment)",Kd,[1],357 nM
same,dH,[1],-16.6 kcal/mol
same,stoichiometry N,[1],2.08
same,Kd,[2],330 nM
B1,Kd,[3],23 nM
same,Kd,[4],37.7 nM
same,dH,[4],-105 kcal/mol
same,stoichiometry N,[4],2.21
same,Kd,[5],28 nM
same,Kd,[6],39 nM
same,stoichiometry N,[7],2
same,Kd,[8],330 nM
same,dH,[8],-5.49 kcal/mol
same,stoichiometry N,[8],1.95
same,Kd,[9],88.3 nM
same,dH,[9],-30.9 kcal/mol
same,stoichiometry N,[9],1.73
same,Kd,[10],150 nM
same,Ka,[11],2.65e+07 M⁻¹
same,Kd,[11],37.8 nM
same,Kd,[12],201 nM
same,dH,[12],-7.93 kcal/mol
same,stoichiometry N,[12],1.96
same,Kd,[13],190 nM
same,Kd,[14],46.1 nM
same,dH,[14],-21.7 kcal/mol
same,stoichiometry N,[14],2.11
same,Kd,[15],67.2 nM
same,dH,[15],-12.8 kcal/mol
same,stoichiometry N,[15],2.01
same,Kd,[16],12 nM
B2,Kd,[17],2.8 nM
same,Kd,[18],9.64 nM
same,dH,[18],-4.21 kcal/mol
same,stoichiometry N,[18],2.11
same,"LLO hemolytic activity at pH 5.5 and 30°C after 1 hour at pH 7.4 and 37°C with the chaperone mutant at a 30:1 molar ratio (protection assay), against wild-type PrsA2 or PrsA2 N+C",[19],~2 fold
B3,Kd,[17],190 nM
same,Kd,[20],~330 nM
same,Kd,[18],206 nM
same,dH,[18],-21.3 kcal/mol
same,stoichiometry N,[18],2.06
same,"LLO hemolytic activity at pH 5.5 and 30°C after 1 hour at pH 7.4 and 37°C with the chaperone mutant at a 30:1 molar ratio (protection assay), against wild-type PrsA2 or PrsA2 N+C",[19],~2 fold
